The values that follow come from paper PMC6550530.

Data set [1] concerns the target T1, CsrA (Vibrio cholerae, UniProt Q9KUH3 1-65). Nature of the data set: EMSA; CsrA up to 40 nM; LightShift chemiluminescent RNA EMSA kit per manufacturer, 10 ul volume; 12% nondenaturing PAGE; buffer, salt, pH and temperature not stated. The settings on record: protein: recombinant; tags: N-terminal His-TEV tag removed by TEV protease; chain copies: 2; label: 5' biotin. Background: In EMSA bound probe runs differently from free probe, usually more slowly.

The target in data set [2] is T1, CsrA. Nature of the data set: EMSA; shift seen at 1.6 nM CsrA, increasing at 8 and 40 nM; LightShift chemiluminescent RNA EMSA kit per manufacturer, 10 ul volume; 12% nondenaturing PAGE; buffer, salt, pH and temperature not stated. The settings on record: protein: recombinant; tags: N-terminal His-TEV tag removed by TEV protease; chain copies: 2; label: 5' biotin.

T1 sequence (Q9KUH3 whole entry): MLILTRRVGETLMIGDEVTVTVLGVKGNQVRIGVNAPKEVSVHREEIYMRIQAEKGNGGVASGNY

B1: atpI RNA oligonucleotide (ssRNA)
RNA: AAAAUUGUAACUUUUUGCGGUGUUUUCAUUGCAAUCAGUUGAUGCCACCGUAUAAUUUUCGCCAAUUUCCCAGUCCGAAAAAGCGGUUCGAGCUGUGGUGAUUACUAGAGGUAAGAAUAC
For B1, the binding result in data set [1] is “no binding”.

B2: varA RNA oligonucleotide (ssRNA)
RNA: AAGUGUGGAGAUACAAGUUUGAUUAGUGUUUUCCUUGUAGAUGAUCACGAGCUGGUUCGCACAGGGAUACGACGUAUUAUUGAAGACGUCCGUGGAAUGAAAGUAGCAGGGGAAGCUGAC
On to B2, for which the binding result in data set [2] was “binds”.
